Where “and” joins values, the source holds several entries; their conditions need not be identical. Equal entries are not always repeated.

One may read the Km as the concentration of substrate that gives half-maximal velocity. Broadly, the kcat is the maximal rate divided by the concentration of active sites. As a reminder, the kcat/Km is the second-order rate constant that governs catalysis at low substrate concentration.

Substrate in the series: O=P(O)(O)CCO
Briefly: O2 consumption, Clark-type oxygen electrode, initial rates. It counts as biochemical, Nitrosopumilus maritimus. The settings on record: co-substrate O2 about 250 μM; Fe(II)-reconstituted enzyme; labelled compound.

B1: methylphosphonate synthase (MPnS) (Nitrosopumilus maritimus SCM1) (protein)
chain: MEKKIDFKPDSYLIRSGNNFLGILNDIKRRPEDAANELGVSIEEINSIISGKQKISPSLIEKAVNIWPVNERDFYIVSDDCSSGILIMTSQDSIKSSRIMERAGKPYYEYRDTAMSKTAPFRPEWILELCKVENNDPENPKAQWNNGHFMHQFTYFIGEVNFYYKDPEGKKHVAIMNTGDSMYITPFTPHTFTTRDGASQNGLILALTYGSKLTGDIQQELSSLSLDCGSQYALDFTNHENASLSLLEYYFELSNLTKEKFAKRTNFSMETLADFFTKKKLPTFDELKIIAKALNVNSRDLMPNDLTESKVIVKTHDQCDHWKYPESGNYEFYELASTTALPHSKAFEIDVSSSEDLNLDLKVGLHQYVYNIGDSALTINWNYENKTYQKSLNPGDSAYIKPFVPHNFRGNGKILILRIGGKISGDSQRELSFVGRENTQRAISETMQWFDPKGSNS
As to B1, the Michaelis constant (Km) is 7.1 ± 0.8 µM and 6.5 ± 1.5 µM and 7.2 ± 1.4 µM; the kcat was determined as 0.17 ± 0.01 s⁻¹; the kcat/Km is 24000 M⁻¹ s⁻¹ (2×) and 26000 M⁻¹ s⁻¹.

The record behind these values is article PMC3458437.
